Self-cleavage data for 32 variants are collected here from the RNAGym collection of RNA variant scans (doi:10.7554/elife.80360).

The chains are these.
B1: HDV Ribozyme (parent)
chain: GGCCGGCAUGGUCCCAGCCUCCUCGCUGGCGCCGGCUGGGCAACAUUCCGAGGGGACCGUCCCCUCGGUAAUGGCGAAUGGGACCCA

Variants of B1 are the subject of the data set. Description: self-cleavage, relative activity (ratio to wild type); higher = more cleavage; co-transcriptional.
Take GGCCGGCAUGGUCCCAGCCUCCUCGCUGGCGCCGGCUGUGCAACAUUCCGAGGGGACCGUCCCCUCGGAAAUGGCGAAUGGGACCCA: the self-cleavage is 0.492.

On to GGCCGGCAUGGUCCCAGCCUCCUCGCUGGCGCCGGCUGUGCAACAUUCCGAGGGGACCGUCCCCUCGGCAAUGGCGAAUGGGACCCA, for which the self-cleavage was determined as 0.769.

For the variant GGCCGGCAUGGUCCCAGCCUCCUCGCUGGCGCCGGCUGGACAACAGUCCGAGGGGACCGUCCCCUCGGUAAUGGCGAAUGGGACCCA, the self-cleavage is 0.554.

Consider GGCCGGCAUGGUCCCAGCCUCCUCGCUGGCGCCGGCUGGACAACAUUCCGAGGGGACCGUCCCCUCGGUAAUGGCGAAUGGGACACA, for which the self-cleavage is 0.859.

Take GGCCGGCAUGGUCCCAGCCUCCUCGCUGGCGCCGGCUGUGCAACAUUCCGAGGGGACCGUCCCCUCGUUAAUGGCGAAUGGGACCCA: the self-cleavage worked out at 0.56.

On to GGCCGGCAUGGUCCCAGCCUCCUCGCUGGCGCCGGCUGUGCAACAUUCCGAGGGGACCGUCCCCUCGAUAAUGGCGAAUGGGACCCA, for which the self-cleavage is 0.841.

Regarding GGCCGGCAUGGUCCCAGCCUCCUCGCUGGCGCCGGCUGGACAACAUUCCGACGGGACCGUCCCCUCGGUAAUGGCGAAUGGGACCCA, the self-cleavage was 0.986.

As to GGCCGGCAUGGUCCCAGCCUCCUCGCUGGCGCCGGCUGGACAUCAUUCCGAGGGGACCGUCCCCUCGGUAAUGGCGAAUGGGACCCA, the self-cleavage was determined as 0.446.

As for GGCCGGCAUGGUCCCAGCCUCCUCGCUGGCGCCGGCUGGACAACAUUCCGAGGGGACCGUCCCCUCGGAAAUGGCGAAUGGGACCCA, the self-cleavage was 0.892.

GGCCGGCAUGGUCCCAGCCUCCUCGCUGGCGCCGGCUGGACAACAUUCCGAGGGGACCGUCCCCUCGGCAAUGGCGAAUGGGACCCA: the self-cleavage was 0.876.

As for GGCCGGCAUGGUCCCAGCCUCCUCGCUGGCGCCGGCUGGCCAACAUUCCGAGGGGGCCGUCCCCUCGGUAAUGGCGAAUGGGACCCA, the self-cleavage stood at 0.237.

For GGCCGGCAUGGUCCCAGCCUCCUCGCUGGCGCCGGCUGGCCAACAUUCCGAGGGGCCCGUCCCCUCGGUAAUGGCGAAUGGGACCCA, the self-cleavage turned out to be 0.197.

In the case of GGCCGGCAUGGUCCCAGCCUCCUCGCUGGCGCCGGCUGUGCAACAUUCCGAGGGGACCGUCCCCCCGGUAAUGGCGAAUGGGACCCA, the self-cleavage worked out at 0.752.

Turning to GGCCGGCAUGGUCCCAGCCUCCUCGCUGGCGCCGGCUGUGCAACAUUCCGAGGGGACCGUCCCCUCGGUAAUGGCGAAUGGUACCCA, the self-cleavage amounted to 0.155.

Take GGCCGGCAUGGUCCCAGCCUCCUCGCUGGCGCCGGCUGGCCAACAUUCCGAGGGGACCGUCCCCUCGGUAAUGGCGAAUGGGACCCG: the self-cleavage amounted to 0.215.

Consider GGCCGGCAUGGUCCCAGCCUCCUCGCUGGCGCCGGCUGGACAACAUUCCGAGGAGACCGUCCCCUCGGUAAUGGCGAAUGGGACCCA, for which the self-cleavage came to 1.04.

Turning to GGCCGGCAUGGUCCCAGCCUCCUCGCUGGCGCCGGCUGUGCAACAUUCCGAGGGGACCGUCCCCUCGGUAAUGGGGAAUGGGACCCA, the self-cleavage came to 0.0978.

For GGCCGGCAUGGUCCCAGCCUCCUCGCUGGCGCCGGCUGUGCAACAUUCCGAGGGGACCGUCCCCUCGGUAAUGGAGAAUGGGACCCA, the self-cleavage was 0.166.

With GGCCGGCAUGGUCCCAGCCUCCUCGCUGGCGCCGGCUGUGCAACAUUCCGAGGGGACCGUCCCCUCGGUAAUGGUGAAUGGGACCCA, the self-cleavage amounted to 0.0923.

On to GGCCGGCAUGGUCCCAGCCUCCUCGCUGGCGCCGGCUGGACAACAUUCCGAGGGGACCGUCCCUUCGGUAAUGGCGAAUGGGACCCA, for which the self-cleavage was 0.925.

Turning to GGCCGGCAUGGUCCCAGCCUCCUCGCUGGCGCCGGCUGGACAACAUUCCGAGGGGACCGUCCCCUCGGUACUGGCGAAUGGGACCCA, the self-cleavage came out at 0.485.

As to GGCCGGCAUGGUCCCAGCCUCCUCGCUGGCGCCGGCUGGACAACAUUCCGAGGGGAACGUCCCCUCGGUAAUGGCGAAUGGGACCCA, the self-cleavage worked out at 1.18.

In the case of GGCCGGCAUGGUCCCAGCCUCCUCGCUGGCGCCGGCUGGACAACAUUCAGAGGGGACCGUCCCCUCGGUAAUGGCGAAUGGGACCCA, the self-cleavage was found to be 0.95.

With GGCCGGCAUGGUCCCAGCCUCCUCGCUGGCGCCGGCUGGACAACAUUCUGAGGGGACCGUCCCCUCGGUAAUGGCGAAUGGGACCCA, the self-cleavage amounted to 0.95.

In the case of GGCCGGCAUGGUCCCAGCCUCCUCGCUGGCGCCGGCUGGACAACAUUCCGAGGGGACGGUCCCCUCGGUAAUGGCGAAUGGGACCCA, the self-cleavage amounted to 1.02.

As to GGCCGGCAUGGUCCCAGCCUCCUCGCUGGCGCCGGCUGGCCAACAUUCCGAGGGGACCGUCCCCUCGGUACUGGCGAAUGGGACCCA, the self-cleavage amounted to 0.121.

In the case of GGCCGGCAUGGUCCCAGCCUCCUCGCUGGCGCCGGCUGGCCAUCAUUCCGAGGGGACCGUCCCCUCGGUAAUGGCGAAUGGGACCCA, the self-cleavage came to 0.0639.

In the case of GGCCGGCAUGGUCCCAGCCUCCUCGCUGGCGCCGGCUGUGCAACAUUCCGAGGGGACCGUCCCCUGGGUAAUGGCGAAUGGGACCCA, the self-cleavage stood at 0.831.

Turning to GGCCGGCAUGGUCCCAGCCUCCUCGCUGGCGCCGGCUGUGCAACAUUCCGAGGGGACCGUCCCCUCGGUAAUGGCGAAUGGGACGCA, the self-cleavage is 0.69.

In the case of GGCCGGCAUGGUCCCAGCCUCCUCGCUGGCGCCGGCUGUGCAACAUUCCGAGGGGACCGUCCCCUCGGUAAUGGCGAAUGCGACCCA, the self-cleavage was 0.119.

As to GGCCGGCAUGGUCCCAGCCUCCUCGCUGGCGCCGGCUGUGCAACAUUCCGAGGGGACCGUCCCCUCGGUAAUGGCGAAUGUGACCCA, the self-cleavage came out at 0.185.

In the case of GGCCGGCAUGGUCCCAGCCUCCUCGCUGGCGCCGGCUGGCCAACAUUCCGAGGGGACCGUCCCCUCGGUAAUGGCGAAUGGGCCCCA, the self-cleavage amounted to 0.0755.
